The target of this experiment is HRT1-REF bridging protein (HRBP) (Hevea brasiliensis).

The substance “Hevea rubber transferase 1 (HRT1) (enzyme)” displayed a prenyltransferase activity of HRT1/HRBP-nanodisc complexes, raw [14C]IPP incorporation (12.5 nCi [14C]IPP in the reaction) of 12200 dpm.
